Results taken from US9486502B2, “Methods of administering interferon gamma to absorb fluid from the subretinal space” (The United States of America, as represented by the …, priority 2008, dated 2016).
Entries after “also recorded” stand apart in the source; their conditions may differ.

Columns and labels:
Type in all cases: cell-based, human
hfRPE cells = assay: immunoblotting of JAK-STAT / MAP kinase signalling proteins in hfRPE
Protocol: Immunoblotting was performed as previously described in Li, R. et al., 2007, Invest Ophthalmol Vis Sci, 48, 5722-5732, incorporated by reference in its entirety herein. Primary cultures of hfRPE and native human adult RPE cells were lysed using RIPA buffer (Sigma-Aldrich) supplemented with proteinase inhibitor cocktail (Roche). Total protein in the supernatant was measured (BCA™ protein assay, Pierce Biotechnology) and 20 µg of protein from cell lysate supernatants was electrophoresed on a 4-12% gradient Bis-Tris NuPAGE gel (Invitrogen) under reduced or non-reduced conditions. Resolved proteins were transferred to nitrocellulose membranes (membranes and XCell II™ Blot Module, Invitrogen).
The membranes were incubated with mouse anti-human IFNγ R1 monoclonal antibody (R&D Systems), anti-human IFNγ R2 (Santa Cruz Biotechnology), anti-human IFNAR1, anti-human IFNAR2 (Abcam), anti-IRF1, anti-IRF2, anti-IRF8 (Santa Cruz Biotechnology) or anti-CFTR antibody 217 (Cystic Fibrosis Foundation Therapeutics Inc., Bethesda, Md.), after blocking non-specific binding ((StartingBlock™ T20 (TBS), Pierce Biotechnology). Membranes were then incubated with horseradish peroxidase (HRP) conjugated secondary antibody (Pierce Biotechnology) and visualized using Supersignal® West Dura Extended Duration Substrate (Pierce Biotechnology) and imaged using an Autochemie™ system (UVP, Upland, Calif.). The antibody-specific bands for IRF-1, IRF-2, ICSBP (IRF-8) and GAPDH were around 91 kDa, […], respectively.
For phosphorylation studies, cells were starved for 24 hours in serum-free medium (“SFM,” MEM-α modification medium containing non-essential amino acids and Glutamine-Penicillin-Streptomycin). Cells were treated with IFNγ (5-50 ng/ml) in SFM at various time points at 37° C. and lysed with RIPA buffer supplemented with proteinase inhibitor cocktail (Roche) and Halt™ phosphatase inhibitor cocktail (Pierce Biotechnology). 40 μg of protein was electrophoresed. As in the immunoblotting experiments described above, except that the membranes were incubated with anti-phospho-p38 MAP kinase (Thr180/Tyr182), anti-p38 MAP kinase, anti-phospho-Stat1 (Tyr701), anti-phospho-Stat1 (Ser727) or anti-Stat1 antibodies, respectively (each from Cell signaling Technology, Danvers, Mass.). The antibody-specific bands for STAT1/phospho-STAT1 (Tyr701) were around 84 kDa. GAPDH was blotted together with anti-GAPDH antibody (Abcam) and used as loading control. Cyclohexamide (“CHX”; Sigma-Aldrich), a protein synthesis inhibitor, was used at 62 μM.
For CFTR immunoblotting analysis, confluent monolayers of hfRPE were homogenized on ice in isolation solution (250 mM Sucrose, 10 mM Tris-HCl, 10 mM MgCl2, 1 mM CaCl2, pH 7.4) supplemented with Halt™ protease inhibitor cocktail, EDTA-free. Nuclei and intact cells were removed with centrifugation (900×g for 10 minutes at 4° C., followed by centrifugation at 10,000×g for 5 minutes). Crude plasma membrane proteins were collected after centrifugation at 100,000×g for 1 hour at 4° C.

hfRPE monolayer = assay: fluorescence imaging of intracellular calcium; conditions: IFNγ 0.5, 5, 50 ng/ml both sides; n=4
Protocol: Therefore, whether the CFTR pathway was involved in the response to IFNγ was examined using cAMP assays as described in Example 8. Primary cultures of hfRPE cells were incubated in control media, in the presence of IFNγ (0.5, 5, or 50 ng/ml), or in forskolin containing media (10 μM) for different amounts of time (5 minutes, 45 minutes, 12 hours, or 24 hours), and then total intracellular cAMP levels were measured using a cAMP ELISA System (Applied Biosystems, Foster City, Calif.). […] (n=3; P<0.05). […] In a separate set of experiments, fluorescence imaging was used to measure the intracellular concentration of calcium [Ca^2+]I in the presence of IFNγ (0.5, 5, 50 ng/ml) added to both sides of the hfRPE monolayer and no change in total cell [Ca^2+]I was observed (n=4, data not shown).

hfRPE monolayers = assay: electrophysiology of hfRPE monolayers (TEP, RT, VA, VB, RA/RB)
Description: Equivalent circuit analysis and electrophysiological methods have been previously described in Quinn, R. H., et al., Invest Ophthalmol Vis Sci, 1992, 33, 3513-3527; Joseph D. P., et al., J Physiol, 1991, 435, 439-463; and Maminishkis, A., et al., 2006, Ophthalmol Vis Sci, 47, 3612-3624each incorporated herein by reference in its entirety.
Briefly, confluent monolayers of cultured hfRPE were mounted on a nylon mesh support and clamped into a modified Üssing chamber that allowed the rapid exchange of Ringer's solution (≈10 chamber volumes per minute) and the measurement of fast electrical changes in seconds. The electrical connections to the apical and basal chambers were made with Ringer-agar bridges in series with calomel electrodes. Intracellular potentials were recorded with conventional microelectrodes, back-filled with 150 mM KCl, with resistances of 80 to 200 Ma The apical and basolateral membrane potentials (VA and VB) are calculated as the voltage differences between the intracellular microelectrode and the apical and basal bath electrodes, respectively. The resistances of the apical and basolateral membranes were designated RA and RB, respectively, and the transepithelial potential (TEP=VB-VA) is the voltage difference between the apical and basal bath electrodes. Epithelial resistance parameters were obtained by passing 4-μA bipolar current pulses (i) using Ag—AgCl electrodes, one located in the apical chamber and the other located in the basal chamber. The total transepithelial resistance (Rt) is calculated from the current-induced changes in TEP (Rt=ΔTEP/i). The apparent membrane resistance ratio (RA/RB) is calculated from the ratio of change in VA to change in VB (RA/RB=ΔVA/ΔVB).
The control Ringer's solution for measurements of TEP and Rt in culture hfRPE contained 116 mM NaCl, 5 mM KCl, 26.2 mM NaHCO3, 1 mM NaH2PO4, 1 mM Mg Cl2, 1.8 mM CaCl2, 10 mM glucose, and 2 mM Taurine. The osmolarity of control Ringer's solution was 295 mOsm. The solutions were maintained at 35° C. and a pH of 7.4, and were bubbled with 10% O2, 5% CO2 and 85% N2. 8-Bromo-cAMP (or Dibutyryl cAMP), 8-Br-cGMP, and forskolin were obtained from Sigma-Aldrich.

[1] = IFNγ 100 ng/ml apical and basal, FIG. 17A
[2] = IFNγ 500 ng/mL apical and basal, FIG. 22

B1: IFNγ: pleiotropic cytokine produced by T- and NK-cells; obtained from Peprotech (protein, UniProt P01579 24-161, looked up)
Interferon gamma: QDPYVKEAENLKKYFNAGHSDVADNGTLFLGILKNWKEESDRKIMQSQIVSFYFKLFKNFKDDQSIQKSVETIKEDMNVKFFNSNKKKRDDFEKLTNYSVTDLNVQRKAIHELIQVMAELSPAAKTGKRKRSQMLFRG
STAT1 tyrosine phosphorylation (hfRPE cells; IFNγ 5 ng/ml, 15 minutes): tyrosine phosphorylated | IRF-1 protein (hfRPE cells; IFNγ 4 hours): activated; also recorded: significantly increased | IRF-2 protein (hfRPE cells; IFNγ 4 hours): unaffected; also recorded: no effect | IRF-8 (ICSBP) protein (hfRPE cells; IFNγ-treated hfRPE): below the detection limit; also recorded: no detectable change | effect on CFTR protein level (hfRPE cells; IFNγ-treated hfRPE, not statistically significant): small decrease | STAT1 protein signal (hfRPE cells; after IFNγ treatment): significantly increased; also recorded: significantly up-regulated | effect on JNK or P44/P42 phosphorylation (hfRPE cells; all six time points tested): no effect | period over which IFNγ-induced phosphorylation of STAT1 was observed (hfRPE cells; hfRPE): 2 to 48 h | time to IFNγ-induced phosphorylation of P38 MAPK (hfRPE cells; hfRPE, serum starved 24 hours): 2 to 5 min | total cell [Ca^2+]I (hfRPE monolayer): no change | RT decrease (hfRPE monolayers; [1]): 15 Ω·cm^2 | TEP increase (hfRPE monolayers; [1]): 0.9 mV | depolarization of both VA and VB (hfRPE monolayers; [2]): approximately 2.5 mV | increase in RA/RB (hfRPE monolayers; [2]): 0.2 | increase in TEP (hfRPE monolayers; [2]): 0.3 mV | ΔRT (decrease) (hfRPE monolayers; IFNγ, mean of experiments): 17±2 Ω·cm^2 | ΔTEP (increase) (hfRPE monolayers; IFNγ, mean of experiments): 0.5±0.1 mV
